Data reported in US20240343781A1 (TRUSTEES OF COLUMBIA UNIVERSITY IN THE CITY OF NEW YORK, published 2024).

Target: SARS-COV spike on pseudovirus (SARS-CoV, UniProt P59594 14-1255)
Assay: cell-based or functional assay

B1: engineered monoclonal antibody 10-40 (antibody, V domains shown)
VH: QLQLQESGPGLVKPSETLSLTCTVSGGSISSSNFYWGWIRQPPGKGLEWIASITYSGRTFYNPSLKSRVAISVDTSKNQFSLKLSSVTAADTAVYYCARTFPSYYDRSGYHYLNYGMDVWGQGTTVTVSS
VL: NFMLTQPHSMSESPGKTVTISCTRSSGSIASNYVQWYQQRPGSSPTTVIYEDNQRPSGVPDRFSGSIDSSSNSASLTISGLKTEDEADYYCQSYDSSSWVFGGGTKLTVL
IC50, neutralization of pseudoviruses: 19 ng/mL

B2: engineered monoclonal antibody 11-11 (antibody, V domains shown)
VH: QVQLQESGPGLVKPSQTLSLTCTVSGGSISSGGYYWSWIRQHPGKGLEWIGYIYYSGSTYYNPSLKSRVTISVDTSKNQFSLKVSSVTAADTAVYYCASSNYYDGSGYNLLESYGMDVWGQGTSVTVSS
VL: QSVLTQPPSVSGAPGQRVTISCTGSSSNIGAGYDVHWYQQLPGTAPKLLIYGNSNRPSGVPDRFSGSRSGTSASLAITGLQAEDEADYYCQSYDSSLSGSWVFGGGTKVTVL
IC50, neutralization of pseudoviruses: 25 ng/mL
